We go through one substance from publication PMC8847413.

Assay [1] has as its target prefusion-stabilized S protein (S trimer) of SARS-CoV-2 G614 variant (SARS-CoV-2) (UniProt P0DTC2). The assay can be described thus: BLI. (In general: Biolayer interferometry detects binding as a change in optical thickness at a sensor tip.)
The target of assay [2] is prefusion-stabilized trimeric S protein (S ectodomain) of SARS-CoV-2 Delta (B.1.617.2) variant (SARS-CoV-2) (UniProt P0DTC2). Description: BLI.

Chain of human ACE2 peptidase domain (PD) (Q9BYF1 17-615): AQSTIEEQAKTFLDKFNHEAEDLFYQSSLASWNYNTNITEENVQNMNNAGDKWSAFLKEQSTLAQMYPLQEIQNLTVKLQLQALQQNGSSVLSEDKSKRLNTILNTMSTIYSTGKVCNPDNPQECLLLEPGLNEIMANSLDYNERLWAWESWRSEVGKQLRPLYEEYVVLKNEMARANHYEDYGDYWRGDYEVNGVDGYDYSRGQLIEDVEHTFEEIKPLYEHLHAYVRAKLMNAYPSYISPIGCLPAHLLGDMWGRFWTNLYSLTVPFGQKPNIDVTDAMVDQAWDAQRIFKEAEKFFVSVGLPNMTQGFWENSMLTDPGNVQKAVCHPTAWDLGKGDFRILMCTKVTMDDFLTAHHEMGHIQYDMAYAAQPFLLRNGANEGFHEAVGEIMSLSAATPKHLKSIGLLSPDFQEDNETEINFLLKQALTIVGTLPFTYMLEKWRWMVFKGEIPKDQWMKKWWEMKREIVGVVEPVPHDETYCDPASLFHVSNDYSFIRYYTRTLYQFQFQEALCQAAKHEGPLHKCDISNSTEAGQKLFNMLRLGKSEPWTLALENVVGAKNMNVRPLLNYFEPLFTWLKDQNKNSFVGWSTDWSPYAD

Turning to “human ACE2 peptidase domain (PD) (from UniProt Q9BYF1) (domain or fragment)”, the Kd (in general, a measure of binding affinity in units of concentration) in assay [1] was found to be 87 nM; in assay [2] it was 41 nM.
